The target in the experiment is human CD3 (CD3 epsilon as part of the T cell receptor complex) on cells (human) (UniProt P07766). The experiment is described as follows: flow cytometry on Jurkat cells, 10 nM antibody.
human CD3 (CD3 epsilon as part of the T cell receptor complex) on cells (human), sequence (P07766 23-207 limits assumed, one chain of several): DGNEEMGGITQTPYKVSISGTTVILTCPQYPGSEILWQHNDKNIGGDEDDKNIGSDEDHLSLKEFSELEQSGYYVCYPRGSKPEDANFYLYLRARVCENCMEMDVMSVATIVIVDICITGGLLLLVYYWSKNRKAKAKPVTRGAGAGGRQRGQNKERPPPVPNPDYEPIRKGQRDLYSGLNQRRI

UCHT1 (antibody): the MFI (arbitrary units) was found to be 89200.

Values taken from patent US20240025992A1.
